Where no end group is shown, it is not given here.

The values below come from US20090214555A1.

This experiment has as its target rabbit polyclonal anti-Syn2vE1a antibodies. As to the kind of experiment: epitope peptide competition: antisera pre-absorbed with 3 mg/ml synthetic epitope peptide, then Western blot on Syn2vE1a lysate. (A western blot detects proteins with antibodies after separation by electrophoresis.)

Regarding CGIRRAPLYKRHPTGTA-NH2 [synthetic epitope peptide (C)…-amide], the percent of anti-Syn2vE1a signals blocked was greater than 98%.
